Laboratory results published in US20060240015A1 (Kyowa Kirin, published 2006).

Columns and labels:
[1] = target: T1, human insulin-like growth factor-I (human, UniProt P05019 49-118); experiment: SPR (Biacore 2000), hIGF-I amine-coupled on CM-5, antibody as analyte, 25 C
T1 construct: mature; In the ELISAs it was coated as a conjugate with methylated BSA; in Biacore it was amine-coupled to a CM-5 chip; also called hIGF-I; IGF-I
Description: (§1) For diluting samples and as reaction buffers in measurement, HBS-EP (10 mM HEPES, 150 mM NaCl, 3 mM EDTA, 0.005% Tween 20 pH 7.4) (manufactured by Biacore) was used.
(§2) Using an amine coupling kit (manufactured by Biacore), recombinant hIGF-I (manufactured by Fujisawa Pharmaceutical Co., Ltd.) and hIGF-II (manufactured by R & D) were immobilized at 18.5 pg/mm² or 26.7 pg/mm², respectively, on sensor tip CM-5 (manufactured by Biacore). After various antibodies which were diluted 5 steps in 2-fold serial dilutions as analytes added at a flow of 5 μl/minute for 4 minutes to observe a binding reaction, the dissociation reaction was subsequently observed over 5 minutes. After the dissociation reaction, 5 μl of 30 mM hydrochloric acid was added once, to regenerate the sensor chip surface. The reaction was done at 25° C. Based on the reaction curves at various concentrations, the binding constant Kass and dissociation constant Kdiss were calculated, to calculate the binding constants KA (M⁻¹) of these various antibodies.

[2] = target: T1, human insulin-like growth factor-I; experiment: binding ELISA on coated mBSA-hIGF-I
Description: A conjugate of hIGF-I (manufactured by Fujisawa Co., Ltd.) with methylated BSA (manufactured by SIGMA) was prepared and used as an antigen to be immobilized on an ELISA plate. That is, methylated BSA dissolved in distilled water was mixed with hIGF to a ratio of methylated BSA:hIGF-I=1:8 (weight ratio) at 4° C. The resulting mixture was agitated with a vortex mixer for 10 seconds, to obtain a conjugate of hIGF-I with methylated BSA (hereinafter referred to as mBSA-hIGF-I).
The above mBSA-hIGF-I was dispensed at 50 μl/well on a 96-well ELISA plate (manufactured by Greiner) to give a hIGF-I concentration of 20 ng/ml and then left overnight at 4° C. for immobilization. After washing with PBS, PBS containing 1% BSA (hereinafter referred to as BSA-PBS) was dispensed in 100 μl/well to react at room temperature for 1 hour to carry out blocking of the remaining active groups. Discarding BSA-PBS, the culture supernatant of each of the various transformants or each of various purified hIGF CDR-grafted antibodies was dispensed at 50 μl/well to react at room temperature for 2 hours. After the reaction, each well was washed with PBS containing 0.05% Tween 20 (hereinafter referred to as Tween-PBS). Then, HRP-labeled anti-human IgG antibody (manufactured by American Qualex) in 2000-fold dilution was dispensed at 50 μl/well as a secondary antibody to react at room temperature for 1 hour.

[3] = target: T1, human insulin-like growth factor-I; experiment: SPR (Biacore 2000)
[4] = target: T2, human insulin-like growth factor-II (human, UniProt P01344 25-91); experiment: SPR (Biacore 2000)
T2 construct: also called hIGF-II; IGF-II

[5] = target: T2, human insulin-like growth factor-II; experiment: SPR (Biacore 2000), hIGF-II amine-coupled on CM-5, antibody as analyte, 25 C
Description: as §1, §2

T2 sequence (P01344 25-91 limits assumed): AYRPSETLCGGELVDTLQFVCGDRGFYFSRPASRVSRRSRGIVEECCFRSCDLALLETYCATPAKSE
T1 sequence (P05019 49-118): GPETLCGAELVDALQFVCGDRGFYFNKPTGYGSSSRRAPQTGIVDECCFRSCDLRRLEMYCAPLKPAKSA

| Ka [1] [M⁻¹] | binding activity relative to KM3002 (fold) [2] [fold] | KA relative to KM3002 (fold) [3] [fold] | KA relative to KM3002 (fold) [4] [fold] | Ka [5] [M⁻¹] | binding activity relative to CamHV0/LV0 (fold) [2] [fold] | KA relative to CamHV0/LV0 (fold) [3] [fold] | KA relative to CamHV0/LV0 (fold) [4] [fold] | Binder |
| --- | --- | --- | --- | --- | --- | --- | --- | --- |
| 1.7e+08 | ~0.02 | ~0.059 | ~0.167 | 3.9e+08 | – | – | – | anti-hIGF CDR-grafted antibody CamHV0/LV0 (antibody, human IgG1, V domains shown, Human IgG1, kappa (pKANTEX93); also called CmaHV0/LV0) VH: QVQLVESGGGVVQPGRSLRLSCAASGFTFSNYYMTWVRQAPGKGLEWVAYISSGGGSTYYRDSVKGRFTISRDNSKNTLYLQMNSLRAEDTAVYYCAREDYGYWFAYWGQGTLVTVSS VL: DIVMTQSPDSLAVSLGERATINCRASSSVSYMHWYQQKPGQPPKLLIYGTSKLASGVPDRFSGSGSGTDFTLTISSLQAEDVAVYYCLQRSSYPPTFGQGTKVEIK |
| 7.8e+08 | ~0.5 | – | – | 1.75e+09 | ~25 | ~5 | ~5 | anti-hIGF CDR-grafted antibody QGAR/LV0 (antibody, human IgG1, V domains shown, Human IgG1, kappa (pKANTEX93)) VH: EVQLVESGGGVVQPGRSLRLSCAASGFTFSNYYMTWVRQAPTKGLEWVAYISSGGGSTYYRDSVKGRFTISRDNSKNTLYLQMNSLRAEDTAVYYCTTEDYGYWFAYWGQGTLVTVSS VL: DIVMTQSPDSLAVSLGERATINCRASSSVSYMHWYQQKPGQPPKLLIYGTSKLASGVPDRFSGSGSGTDFTLTISSLQAEDVAVYYCLQRSSYPPTFGQGTKVEIK |
| 2.78e+09 | – | – | – | 3.52e+09 | – | – | – | anti-hIGF CDR-grafted antibody QGAR/PLLDFT (antibody, human IgG1, V domains shown, Human IgG1, kappa (pKANTEX93)) VH: EVQLVESGGGVVQPGRSLRLSCAASGFTFSNYYMTWVRQAPTKGLEWVAYISSGGGSTYYRDSVKGRFTISRDNSKNTLYLQMNSLRAEDTAVYYCTTEDYGYWFAYWGQGTLVTVSS VL: DIVMTQSPDSLAVSLGERATINCRASSSVSYMHWYQQKPGQSPKPWIYGTSKLASGVPDRFSGSGSGTSYSLTISSLQAEDVAVYYCLQRSSYPPTFGQGTKVEIK |
| 2.31e+09 | – | – | – | 4.02e+09 | – | – | – | anti-hIGF CDR-grafted antibody QGAR/PLDFT (antibody, human IgG1, V domains shown, Human IgG1, kappa (pKANTEX93)) VH: EVQLVESGGGVVQPGRSLRLSCAASGFTFSNYYMTWVRQAPTKGLEWVAYISSGGGSTYYRDSVKGRFTISRDNSKNTLYLQMNSLRAEDTAVYYCTTEDYGYWFAYWGQGTLVTVSS VL: DIVMTQSPDSLAVSLGERATINCRASSSVSYMHWYQQKPGQSPKPLIYGTSKLASGVPDRFSGSGSGTSYSLTISSLQAEDVAVYYCLQRSSYPPTFGQGTKVEIK |
| 1.7e+08 | – | – | – | 4.5e+08 | – | – | – | anti-hIGF CDR-grafted antibody QAR/LV0 (antibody, human IgG1, V domains shown, Human IgG1, kappa (pKANTEX93); also called QAV/LV0) VH: EVQLVESGGGVVQPGRSLRLSCAASGFTFSNYYMTWVRQAPGKGLEWVAYISSGGGSTYYRDSVKGRFTISRDNSKNTLYLQMNSLRAEDTAVYYCTTEDYGYWFAYWGQGTLVTVSS VL: DIVMTQSPDSLAVSLGERATINCRASSSVSYMHWYQQKPGQPPKLLIYGTSKLASGVPDRFSGSGSGTDFTLTISSLQAEDVAVYYCLQRSSYPPTFGQGTKVEIK |
| 1.32e+09 | ~0.5 | – | – | 2.1e+09 | ~25 | ~8 | ~5 | anti-hIGF CDR-grafted antibody CamHV0/NYPLL3A11 (antibody, human IgG1, V domains shown) VH: QVQLVESGGGVVQPGRSLRLSCAASGFTFSNYYMTWVRQAPGKGLEWVAYISSGGGSTYYRDSVKGRFTISRDNSKNTLYLQMNSLRAEDTAVYYCAREDYGYWFAYWGQGTLVTVSS VL: DIVMTQSPDSLAVSLGERATITCRASSSVSYMHWFQQKPGQSPKPWIYGTSKLASGVPDRFSGSGSGTSYSLTISSLQAEDAATYYCLQRSSYPPTFGQGTKVEIK |
| 2.94e+09 | – | – | – | 2.24e+09 | – | – | – | anti-hIGF human chimeric antibody KM3002 (antibody, human IgG1, V domains shown, V regions of KM1468 on human IgG1, kappa constant regions (vector pKANTEX93); also called anti-hIGF chimeric antibody KM3002) VH: EVHLVESGGGLVQPGRSLKLSCAASGFTFSNYYMTWVRQAPTKGLEWVAYISSGGGSTYYRDSVKGRFTISRDNAKSTLYLQMDSLRSEDTATYYCTTEDYGYWFAYWGQGTLVTVSS VL: EIVLTQSPTTMAASPGEKVTITCRASSSVSYMHWFQQKSGTSPKPWIYGTSKLASGVPDRFSGSGSGTSYSLTISSMEAEDAATYYCLQRSSYPPTFGAGTKLELK |
| 2.32e+09 | – | – | – | 3.96e+09 | – | ~14 | ~10 | anti-hIGF CDR-grafted antibody QGAR/NYPLL3A11 (antibody, V domains shown, Human IgG1, kappa (pKANTEX93)) VH: EVQLVESGGGVVQPGRSLRLSCAASGFTFSNYYMTWVRQAPTKGLEWVAYISSGGGSTYYRDSVKGRFTISRDNSKNTLYLQMNSLRAEDTAVYYCTTEDYGYWFAYWGQGTLVTVSS VL: DIVMTQSPDSLAVSLGERATITCRASSSVSYMHWFQQKPGQSPKPWIYGTSKLASGVPDRFSGSGSGTSYSLTISSLQAEDAATYYCLQRSSYPPTFGQGTKVEIK |
